Biological target: the molecule itself
Test: SEC-MALS; Superdex 75 Increase 10/300 GL; HilD (100 μM) incubated with 1% (v/v) DMSO or C26 (100 µM) for 20 min at room temperature; SEC buffer (50 mM NaH2PO4, pH 7.0, 200 mM NaCl); 0.5 ml/min

B1: HilD (natural protein)
chain: MENVTFVSNSHQRPAADNLQKLKSLLTNTRQQIKSQTQQVTIKNLYVSSFTLVCFRSGKLTISNNHDTIYCDEPGMLVLKKEQVVNVTLEEVNGHMDFDILEIPTQRLGALYALIPNEQQTKMAVPTEKAQKIFYTPDFPARREVFEHLKTAFSCTKDTSKGCSNCNNKSCIENEELIPYFLLFLLTAFLRLPESYEIILSSAQITLKERVYNIISSSPSRQWKLTDVADHIFMSTSTLKRKLAEEGTSFSDIYLSARMNQAAKLLRIGNHNVNAVALKCGYDSTSYFIQCFKKYFKTTPSTFIKMANH
notes: HilD, transcriptional regulator of Salmonella enterica serovar Typhimurium; the hilD gene was cloned into pET-24a(+) with an N-terminal His6-SUMO fusion; Dimer by SEC-MALS; 9 (printed only as an image); also called HilDWT; recombinant HilD; source: E. coli C41(DE3), purified (Ni-NTA, SUMO protease cleavage, second Ni-NTA, SEC Superdex 75); not shown: His6, N-terminal, cleaved; SUMO, N-terminal, …
- stoichiometry N: 2

— paper doi:10.1101/2024.04.29.591313, “Discovery of a synthetic small molecule targeting the central regulator of Salmonella pathogenicity” (bioRxiv, 2024)
